Patent publication US20190240295A1

Key:
[1] = target: Plasma-derived VWF (pdVWF, Diagnostica Stago) (UniProt P04275); assay: SPR (Biacore), pdVWF immobilized on CM5 chip; mean KD of lots G-I
[2] = target: Plasma-derived VWF (pdVWF, Diagnostica Stago) (UniProt P04275); assay: SPR (Biacore), pdVWF immobilized on CM5 chip; mean KD of lots D-F
[3] = target: LRP1 (alpha2-macroglobulin receptor/CD91) receptor (BioMac) (UniProt Q07954); assay: SPR (Biacore), LRP1 immobilized on CM4 chip; mean KD of lots A-C
Chain of UniProt Q07954 (Q07954 20-4544 limits assumed): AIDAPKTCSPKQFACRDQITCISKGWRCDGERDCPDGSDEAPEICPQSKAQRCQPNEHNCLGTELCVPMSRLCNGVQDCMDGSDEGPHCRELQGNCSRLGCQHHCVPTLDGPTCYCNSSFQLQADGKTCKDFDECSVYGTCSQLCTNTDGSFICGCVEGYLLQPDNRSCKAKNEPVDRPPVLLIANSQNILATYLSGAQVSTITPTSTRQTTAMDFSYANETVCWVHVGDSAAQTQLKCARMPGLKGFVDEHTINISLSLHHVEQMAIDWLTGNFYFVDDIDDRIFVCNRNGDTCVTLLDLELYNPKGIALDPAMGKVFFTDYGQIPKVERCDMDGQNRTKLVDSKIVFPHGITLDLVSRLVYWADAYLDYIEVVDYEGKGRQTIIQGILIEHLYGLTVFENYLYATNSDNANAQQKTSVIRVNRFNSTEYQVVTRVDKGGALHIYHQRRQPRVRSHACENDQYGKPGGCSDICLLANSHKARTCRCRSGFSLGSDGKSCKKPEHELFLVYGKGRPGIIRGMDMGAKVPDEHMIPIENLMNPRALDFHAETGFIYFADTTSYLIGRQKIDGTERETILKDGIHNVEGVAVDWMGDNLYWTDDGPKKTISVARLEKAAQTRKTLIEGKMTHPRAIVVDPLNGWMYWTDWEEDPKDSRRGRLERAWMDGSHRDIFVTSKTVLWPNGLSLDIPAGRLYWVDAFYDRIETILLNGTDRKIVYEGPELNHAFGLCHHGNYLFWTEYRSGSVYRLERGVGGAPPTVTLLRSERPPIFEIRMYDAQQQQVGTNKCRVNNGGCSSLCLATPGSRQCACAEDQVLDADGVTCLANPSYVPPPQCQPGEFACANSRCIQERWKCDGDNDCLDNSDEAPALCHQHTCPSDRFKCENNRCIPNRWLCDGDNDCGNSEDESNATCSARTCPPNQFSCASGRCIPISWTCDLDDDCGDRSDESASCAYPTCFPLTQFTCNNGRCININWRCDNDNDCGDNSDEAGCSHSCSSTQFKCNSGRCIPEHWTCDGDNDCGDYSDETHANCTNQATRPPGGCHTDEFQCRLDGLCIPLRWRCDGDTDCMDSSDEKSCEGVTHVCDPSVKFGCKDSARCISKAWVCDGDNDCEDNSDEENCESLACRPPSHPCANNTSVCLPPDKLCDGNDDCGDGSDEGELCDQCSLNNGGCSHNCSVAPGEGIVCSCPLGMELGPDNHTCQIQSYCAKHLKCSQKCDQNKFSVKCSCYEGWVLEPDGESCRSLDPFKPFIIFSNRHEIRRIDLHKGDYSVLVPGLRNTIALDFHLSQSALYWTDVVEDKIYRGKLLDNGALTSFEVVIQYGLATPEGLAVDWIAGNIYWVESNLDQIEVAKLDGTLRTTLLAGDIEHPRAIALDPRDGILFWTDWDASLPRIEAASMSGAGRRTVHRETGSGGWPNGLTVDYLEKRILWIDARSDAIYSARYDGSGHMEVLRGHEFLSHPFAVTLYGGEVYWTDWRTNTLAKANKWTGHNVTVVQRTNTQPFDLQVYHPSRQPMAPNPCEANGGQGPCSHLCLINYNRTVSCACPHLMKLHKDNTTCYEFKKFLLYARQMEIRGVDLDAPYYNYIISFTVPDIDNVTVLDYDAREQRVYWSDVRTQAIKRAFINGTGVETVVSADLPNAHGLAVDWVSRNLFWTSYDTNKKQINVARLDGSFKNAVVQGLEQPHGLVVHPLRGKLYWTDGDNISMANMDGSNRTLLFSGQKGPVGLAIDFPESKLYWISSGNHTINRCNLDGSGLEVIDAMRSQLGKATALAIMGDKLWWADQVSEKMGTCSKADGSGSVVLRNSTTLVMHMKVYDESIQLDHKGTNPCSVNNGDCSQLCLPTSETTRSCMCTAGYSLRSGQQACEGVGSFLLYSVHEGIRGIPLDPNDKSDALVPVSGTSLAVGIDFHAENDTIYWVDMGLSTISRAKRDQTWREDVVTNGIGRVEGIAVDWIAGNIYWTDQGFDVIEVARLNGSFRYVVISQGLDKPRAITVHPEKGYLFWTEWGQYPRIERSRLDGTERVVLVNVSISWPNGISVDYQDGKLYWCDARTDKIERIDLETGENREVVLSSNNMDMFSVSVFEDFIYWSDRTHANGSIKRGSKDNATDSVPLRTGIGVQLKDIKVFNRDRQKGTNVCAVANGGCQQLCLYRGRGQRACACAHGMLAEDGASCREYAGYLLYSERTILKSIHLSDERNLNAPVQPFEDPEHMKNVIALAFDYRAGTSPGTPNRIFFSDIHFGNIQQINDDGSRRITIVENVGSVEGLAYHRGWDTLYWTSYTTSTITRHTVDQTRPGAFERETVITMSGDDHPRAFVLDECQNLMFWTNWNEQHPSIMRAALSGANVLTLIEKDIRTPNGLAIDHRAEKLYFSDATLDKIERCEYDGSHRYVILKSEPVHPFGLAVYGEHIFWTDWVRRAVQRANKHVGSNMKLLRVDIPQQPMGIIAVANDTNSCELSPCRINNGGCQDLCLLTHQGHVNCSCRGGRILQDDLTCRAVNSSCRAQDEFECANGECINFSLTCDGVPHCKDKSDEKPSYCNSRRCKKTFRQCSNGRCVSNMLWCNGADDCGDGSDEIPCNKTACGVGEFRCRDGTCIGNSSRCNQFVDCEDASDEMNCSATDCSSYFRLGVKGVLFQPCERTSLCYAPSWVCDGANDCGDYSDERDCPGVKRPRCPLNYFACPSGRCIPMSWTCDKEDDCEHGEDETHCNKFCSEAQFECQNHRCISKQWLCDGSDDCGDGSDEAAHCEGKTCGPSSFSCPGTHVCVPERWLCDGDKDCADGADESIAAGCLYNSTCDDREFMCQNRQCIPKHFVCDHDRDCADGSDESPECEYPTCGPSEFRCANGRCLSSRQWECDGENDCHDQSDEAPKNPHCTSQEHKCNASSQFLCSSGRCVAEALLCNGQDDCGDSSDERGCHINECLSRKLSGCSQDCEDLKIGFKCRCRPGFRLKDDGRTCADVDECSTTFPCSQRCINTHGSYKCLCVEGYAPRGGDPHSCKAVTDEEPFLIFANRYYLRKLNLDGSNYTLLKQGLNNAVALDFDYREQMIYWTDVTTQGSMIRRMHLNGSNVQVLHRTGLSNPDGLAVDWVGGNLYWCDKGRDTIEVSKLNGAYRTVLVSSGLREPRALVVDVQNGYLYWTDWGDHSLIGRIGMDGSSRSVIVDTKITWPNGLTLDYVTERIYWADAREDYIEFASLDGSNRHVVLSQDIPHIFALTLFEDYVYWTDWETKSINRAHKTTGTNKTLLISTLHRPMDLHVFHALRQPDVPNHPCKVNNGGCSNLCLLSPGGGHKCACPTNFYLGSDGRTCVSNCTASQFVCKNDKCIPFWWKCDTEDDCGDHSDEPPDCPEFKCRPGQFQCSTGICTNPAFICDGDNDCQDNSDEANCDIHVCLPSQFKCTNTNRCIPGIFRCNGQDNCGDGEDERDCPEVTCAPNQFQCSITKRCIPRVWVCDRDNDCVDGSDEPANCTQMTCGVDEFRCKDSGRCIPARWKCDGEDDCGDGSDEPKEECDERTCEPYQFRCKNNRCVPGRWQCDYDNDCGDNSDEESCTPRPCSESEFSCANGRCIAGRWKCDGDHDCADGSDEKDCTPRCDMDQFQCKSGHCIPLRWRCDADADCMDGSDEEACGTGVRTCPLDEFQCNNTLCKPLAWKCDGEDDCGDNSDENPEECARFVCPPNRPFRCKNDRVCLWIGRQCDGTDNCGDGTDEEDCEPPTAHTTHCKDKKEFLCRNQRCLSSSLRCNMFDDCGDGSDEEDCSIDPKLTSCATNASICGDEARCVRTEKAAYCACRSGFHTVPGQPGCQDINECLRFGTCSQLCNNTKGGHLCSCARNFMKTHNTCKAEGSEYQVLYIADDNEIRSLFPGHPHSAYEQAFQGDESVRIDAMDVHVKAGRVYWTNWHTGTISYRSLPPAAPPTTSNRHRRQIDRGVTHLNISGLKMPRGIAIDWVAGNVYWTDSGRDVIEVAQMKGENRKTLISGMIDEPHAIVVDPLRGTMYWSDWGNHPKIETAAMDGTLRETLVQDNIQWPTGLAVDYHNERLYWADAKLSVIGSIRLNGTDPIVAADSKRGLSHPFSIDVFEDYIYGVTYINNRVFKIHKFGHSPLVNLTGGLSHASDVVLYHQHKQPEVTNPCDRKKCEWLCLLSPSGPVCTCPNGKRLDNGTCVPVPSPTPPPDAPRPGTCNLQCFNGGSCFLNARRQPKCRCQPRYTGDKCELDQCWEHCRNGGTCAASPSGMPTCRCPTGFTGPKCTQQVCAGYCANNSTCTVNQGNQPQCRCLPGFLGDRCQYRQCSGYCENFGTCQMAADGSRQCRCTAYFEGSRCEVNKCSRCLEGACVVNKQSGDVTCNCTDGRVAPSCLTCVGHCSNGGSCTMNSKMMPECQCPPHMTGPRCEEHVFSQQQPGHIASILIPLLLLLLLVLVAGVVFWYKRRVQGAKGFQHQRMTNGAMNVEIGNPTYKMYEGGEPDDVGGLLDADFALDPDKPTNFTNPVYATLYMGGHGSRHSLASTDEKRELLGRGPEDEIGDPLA

[4] = target: LRP1 (alpha2-macroglobulin receptor/CD91) receptor (BioMac) (UniProt Q07954); assay: SPR (Biacore), LRP1 immobilized on CM4 chip; mean KD of lots D-F
[5] = target: Plasma-derived VWF (pdVWF, Diagnostica Stago) (UniProt P04275); assay: SPR (Biacore), pdVWF immobilized on CM5 chip; mean KD of lots A-C
[6] = target: Plasma-derived VWF (pdVWF, Diagnostica Stago) (UniProt P04275); assay: SPR (Biacore), pdVWF immobilized on CM5 chip; mean KD of lots K-N
[7] = target: LRP1 (alpha2-macroglobulin receptor/CD91) receptor (BioMac) (UniProt Q07954); assay: SPR (Biacore), LRP1 immobilized on CM4 chip; mean KD of lots K-N

Substance	Kd [1]	Kd [2]	Kd [3]	Kd [4]	Kd [5]	Kd [6]	Kd [7]
PSA-rFVIII (polysialylated recombinant Factor VIII) (from UniProt P00451 20-2351)	0.31 nM	0.28 nM	19 nM	32 nM	0.28 nM		
rebuffered rFVIII (unmodified recombinant Factor VIII) (from UniProt P00451 20-2351)						0.32 nM	22.3 nM
